Reference: the supplement of paper PMC12042874
± gives the uncertainty stated by the source.

Experiment: amyloid nucleation score (Sup35N fusion, yeast selection) (log enrichment); library NNK2; higher = more nucleation; inactive = no reads after selection
Method in brief: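 Sup35N fusions to peptides of 20 random codons were expressed in psi-negative yeast, induced 24 hours with 100 μM copper sulfate, and grown 7 days at 30°C on medium lacking adenine and uracil. Input and output plasmid inserts were sequenced by Illumina. The nucleation score is the DiMSum log enrichment of output over input reads, centred on the mode score of non-aggregating sequences. Sequences with under 100 input reads were excluded.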

Row | Substance | amyloid nucleation score
1 | SGGHKWVYFASCISFLRPWR | -0.069 ± 0.55
2 | SGIADEMGSRLTRKLVNRFY | -0.466 ± 0.55
3 | SGRCNSN | -0.63 ± 0.79
4 | SGSGNLFA | -0.545 ± 0.45
5 | SGSVLFGRVYRRRFLFWVVD | inactive
6 | SGTRYYPSWIFGFLVVCKG | -0.404 ± 0.64
7 | SGVKLYRLRRLCLFSRGKFA | 4.09 ± 0.12
8 | SGVWSSKSLYGKRGNSWIVV | 0.053 ± 0.23
9 | SGYQGKYRSMSPRFKFSWVG | -0.392 ± 0.63
10 | SHCCFLG | 0.118 ± 0.51
11 | SHFCVVCEYTLVSSYHR | 5.09 ± 0.09
12 | SHGCGHRL | -0.051 ± 0.79
13 | SHLCQVLVVLGGASTV | 6.41 ± 0.077
14 | SHLKMDNPCLGF | -0.121 ± 0.25
15 | SHQWLRRLPWVI | 0.528 ± 0.44
16 | SHRFADILDCV | 0.518 ± 0.24
17 | SHTITSGWCAGWIGFSPICR | 0.932 ± 0.32
18 | SIARHFRGFV | 0.734 ± 0.47
19 | SIAWRLEFIVDDGVLFRCKS | -0.563 ± 0.35
20 | SIFFNRASCLRRV | inactive
21 | SIFHGWARWKGFG | -0.258 ± 0.48
22 | SIFSKYCF | -0.464 ± 0.5
23 | SIGVSDGNPGRAVGGGLMGH | 0.098 ± 0.49
24 | SIKVRMGEARVMNLVNTLGV | inactive
25 | SILGGVKSLRNIKLFSVWLA | -0.569 ± 0.79

Row | Substance | amyloid nucleation score
26 | SILGVCSRLSYVRSVTFQGV | 0.998 ± 0.61
27 | SILLYKFK | 1.54 ± 0.12
28 | SIPSCCWSLMGFNIIELDDG | 0.173 ± 1.1
29 | SIRSLMGVRSKNSYCRLTVR | 0.011 ± 0.79
30 | SISAKFSSTSWGGG | 6.444 ± 0.046
31 | SISGHSWTKCVRVHYALIYG | 1.07 ± 0.38
32 | SISSLLLRLRGTV | -0.305 ± 0.79
33 | SISVKGLSGRLTVRYLLILV | -0.669 ± 1
34 | SISWVVYSTV | 2.1 ± 0.084
35 | SITAIYESLNRRRNLKFKYC | inactive
36 | SIVLSDGLGS | 0.044 ± 1.1
37 | SKARGLCFLSVLLFISDQST | -1.78 ± 1.1
38 | SKCWESREQGYMYMEWGFEG | 0.219 ± 1
39 | SKEVAAGCSLGIRVVMFKR | inactive
40 | SKFDLYAKFMIRINRLFVLW | -1.59 ± 0.41
41 | SKGSGICRRISTEYDGVGQS | 0.6 ± 0.42
42 | SLADS | -0.802 ± 0.63
43 | SLAQDVRGYGLCNGKTNIVW | -0.867 ± 0.35
44 | SLATSAWVVYLWFVVRDIVV | 0.388 ± 0.33
45 | SLAWARISGVVAICTVGRGF | 7.44 ± 0.032
46 | SLCEFMREGCLLTYWFNKCE | -0.838 ± 0.64
47 | SLCGRRFNTDEPLLETRSSL | 0.817 ± 0.51
48 | SLDGGPAVVEEATFRGSMAF | -0.567 ± 1.1
49 | SLELA | 0.472 ± 0.8
50 | SLETFNVTPCRDVT | -0.633 ± 1.1

Row | Substance | amyloid nucleation score
51 | SLFYPLFLMLGVAYEGSFSW | -1.1 ± 0.61
52 | SLFYVTLAPTSWICGTARC | 1.43 ± 0.41
53 | SLISKEFVGLVGGET | -0.388 ± 0.25
54 | SLKCDCYFSTGHI | inactive
55 | SLKEIECFSQ | inactive
56 | SLLGLNFCSMLAIL | 3.23 ± 0.075
57 | SLLNTGRYCWC | 1.05 ± 0.35
58 | SLLTCLSGMHGWVSIT | -0.13 ± 0.27
59 | SLMIHGHLFRIRVRSLRGRI | -0.714 ± 0.76
60 | SLNAL | -0.296 ± 0.49
61 | SLNFFIMSKSSTGVSSFLYV | 6.483 ± 0.038
62 | SLNNIRLLTHYLDFGVRNLA | 3.04 ± 0.092
63 | SLPAENSFIEF | -1.25 ± 0.39
64 | SLQSDQSADFREDKGRSKAE | 0.898 ± 0.32
65 | SLSCGLYGYMTNSCSYVHRT | 4.22 ± 0.053
66 | SLSLQGLSFMPFCGRSGSVV | inactive
67 | SLSRRQLTIPPVTTRVIQSH | 0.637 ± 0.25
68 | SLTMYGSIEWLNNVSAILRH | 0.541 ± 0.66
69 | SLTYRYVHVLC | 5.86 ± 0.04
70 | SLWVYLVKMVEIFSLKD | -0.531 ± 0.55
71 | SLYFVWSCLLGILKVMPTFN | -1.18 ± 0.64
72 | SMKNK | 0.185 ± 0.4
73 | SMLLVAFWWKGGWTRISPCQ | 0.762 ± 0.23
74 | SMQLDSFCVICGWFALVGLV | 6.67 ± 0.052
75 | SMSSTSFSQWSMAWLEGRMA | 2.93 ± 0.078

Row | Substance | amyloid nucleation score
76 | SMSYDRWKAKS | -0.446 ± 0.48
77 | SMYSYHHSYRSDTKTSNFFW | 3.4 ± 0.072
78 | SNCRLGKGYYNCF | -0.833 ± 0.41
79 | SNCSKCVKVYTSPCLWSLCG | 3.46 ± 0.083
80 | SNCYLKRSYGFRDIITKIRY | 1.24 ± 0.14
81 | SNEIQNII | 0.57 ± 0.81
82 | SNGVAWQCNGNSYRIFCDTS | 7.522 ± 0.069
83 | SNLMISTCEQMGRCVGDDAV | -0.067 ± 0.36
84 | SNLNPVHSDLLMYEMPCNLT | -0.492 ± 1.1
85 | SNMNNPRHLCAKLSKRQMSY | inactive
86 | SNNFFNGMICSLFAGGC | 7.55 ± 0.082
87 | SNRLRVVQ | -0.069 ± 0.32
88 | SNVRWKRGYGDNTILGGSLT | 1.51 ± 0.31
89 | SNYLAPYNNSDATYCG | -0.361 ± 0.54
90 | SNYSPGFLCWALESSTNM | -0.99 ± 1.1
91 | SPAWRNGDPRKKATPTHTGI | 0.004 ± 1.1
92 | SPDRPPSVVVVDRSGDVMVC | 1.57 ± 0.15
93 | SPLASYIAVLWGNVR | -0.515 ± 1.1
94 | SPLRALLTHVWRKQHTYFSN | 3.14 ± 0.08
95 | SPVICRVRGGLFINMSEYNV | inactive
96 | SPVVKFRLLQSINLTHCY | 4.47 ± 0.05
97 | SPWVNYYPSRVYRNVNACLF | -0.339 ± 0.35
98 | SQCARKYVVASVSMLTDVTH | 1.13 ± 0.31
99 | SQHSRHRRQSVVYYAVDGVE | 1.21 ± 0.31
100 | SQMSGSFRRSNGWIAV | inactive

Row | Substance | amyloid nucleation score
101 | SQNETFFKMCVELN | 0.165 ± 0.54
102 | SQRLIRWNCLNAGTIMPSVV | 0.089 ± 1.1
103 | SQVERVQFTGIRKWYGAGRS | 4.57 ± 0.072
104 | SQVTISHSNEHMVGACAVYR | -0.456 ± 0.54
105 | SQWSCVRTSFGPPMYKWFDL | 5.655 ± 0.045
106 | SRAAPDINS | 0.251 ± 0.25
107 | SRACVLWKGLRRAANTC | 0.984 ± 0.27
108 | SRCEVNTWLLILSGGITPMN | 0.722 ± 0.37
109 | SRDVLVLIGYFSCGVIDSAL | 5.16 ± 0.082
110 | SREVFDVLGKFFCSPQDRVV | 0.294 ± 0.8
111 | SRFIAWSFT | -0.038 ± 1.1
112 | SRFVLRFSRGLEGRTSSDMR | 0.294 ± 0.42
113 | SRICIFDDCNRRLARYWGLR | 0.057 ± 0.76
114 | SRIFVLYYSWDAWNSWGDVV | 0.602 ± 0.6
115 | SRIGLYIKCVVLDWRELNLS | 0.206 ± 0.55
116 | SRKFSFAYFTRFFYVLVLIV | inactive
117 | SRKNRSRVSTTISR | -0.731 ± 0.3
118 | SRKPNQINNRSRNSMLGARR | -0.162 ± 0.27
119 | SRKTIVGFYGVPGVRYACIW | inactive
120 | SRLNNLRYLYYLTGFRSLMT | inactive
121 | SRMAWYFLLGYHLMMEKVHL | inactive
122 | SRMRVLFALLQDFQSHVGSV | 1.36 ± 0.11
123 | SRNFVPVHRCVGGF | inactive
124 | SRQRVMLLC | inactive
125 | SRTRCDIWFNLRTFMVRVRK | -0.46 ± 1.1
